Experimental findings from US20110166062A1 (INDIANA UNIVERSITY RESEARCH AND TECHNOLOGY, published 2011) are described below.

Bridges are numbered along the chain shown (N, C = ends). Where no end group is shown, it is not given here.

By EC50 is commonly meant the concentration that produces a half-maximal response. Low values mean higher potency in that assay, high ones lower potency in that assay.

To fix the notation:
T1: GIP receptor (UniProt P48546 22-466)
T1 sequence (looked up): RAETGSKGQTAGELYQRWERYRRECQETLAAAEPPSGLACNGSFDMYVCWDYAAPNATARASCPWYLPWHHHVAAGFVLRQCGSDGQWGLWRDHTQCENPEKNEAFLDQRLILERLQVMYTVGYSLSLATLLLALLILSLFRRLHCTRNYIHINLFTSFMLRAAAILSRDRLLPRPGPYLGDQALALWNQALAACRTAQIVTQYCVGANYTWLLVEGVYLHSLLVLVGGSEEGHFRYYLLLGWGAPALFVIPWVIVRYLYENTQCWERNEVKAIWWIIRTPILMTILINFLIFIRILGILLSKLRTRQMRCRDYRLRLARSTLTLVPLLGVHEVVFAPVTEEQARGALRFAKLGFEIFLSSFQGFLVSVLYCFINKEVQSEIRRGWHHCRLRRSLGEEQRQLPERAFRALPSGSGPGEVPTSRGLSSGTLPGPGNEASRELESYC

B1: mt-110 (peptide)
peptide: YSQGTFTSDYSIYLDEIHQKDFVNWLLAQ-NH2
modifications: lactam 16-20; N-terminus assumed
SMILES: CC[C@H](C)[C@H](NC(=O)[C@H](CO)NC(=O)[C@H](Cc1ccc(O)cc1)NC(=O)[C@H](CC(=O)O)NC(=O)[C@H](CO)NC(=O)[C@@H](NC(=O)[C@H](Cc1ccccc1)NC(=O)[C@@H](NC(=O)CNC(=O)[C@H](CCC(N)=O)NC(=O)[C@H](CO)NC(=O)[C@@H](N)Cc1ccc(O)cc1)[C@@H](C)O)[C@@H](C)O)C(=O)N[C@@H](Cc1ccc(O)cc1)C(=O)N[C@@H](CC(C)C)C(=O)N[C@@H](CC(=O)O)C(=O)N[C@H]1CCC(=O)NCCCC[C@@H](C(=O)N[C@@H](CC(=O)O)C(=O)N[C@@H](Cc2ccccc2)C(=O)N[C@H](C(=O)N[C@@H](CC(N)=O)C(=O)N[C@@H](Cc2c[nH]c3ccccc23)C(=O)N[C@@H](CC(C)C)C(=O)N[C@@H](CC(C)C)C(=O)N[C@@H](C)C(=O)N[C@@H](CCC(N)=O)C(N)=O)C(C)C)NC(=O)[C@H](CCC(N)=O)NC(=O)[C@H](Cc2c[nH]cn2)NC(=O)[C@H]([C@@H](C)CC)NC1=O
B2: mt-100 (peptide)
peptide: YXEGTFISDYSIAMDKIHQQDFVNWLLAQKGKKNWLKHNITQ
modifications: C-terminal amide
B3: mt-99 (peptide)
peptide: YAEGTFISDYSIAMDKIHQQDFVNWLLAQKGKKNWLKHNITQ-NH2
B4: mt-96 (peptide)
peptide: YAEGTFISDYSIAMDEIHQKDFVNWLLAQ-NH2
modifications: lactam 16-20; N-terminus assumed
SMILES: CC[C@H](C)[C@H](NC(=O)[C@H](CO)NC(=O)[C@H](Cc1ccc(O)cc1)NC(=O)[C@H](CC(=O)O)NC(=O)[C@H](CO)NC(=O)[C@@H](NC(=O)[C@H](Cc1ccccc1)NC(=O)[C@@H](NC(=O)CNC(=O)[C@H](CCC(=O)O)NC(=O)[C@H](C)NC(=O)[C@@H](N)Cc1ccc(O)cc1)[C@@H](C)O)[C@@H](C)CC)C(=O)N[C@@H](C)C(=O)N[C@@H](CCSC)C(=O)N[C@@H](CC(=O)O)C(=O)N[C@H]1CCC(=O)NCCCC[C@@H](C(=O)N[C@@H](CC(=O)O)C(=O)N[C@@H](Cc2ccccc2)C(=O)N[C@H](C(=O)N[C@@H](CC(N)=O)C(=O)N[C@@H](Cc2c[nH]c3ccccc23)C(=O)N[C@@H](CC(C)C)C(=O)N[C@@H](CC(C)C)C(=O)N[C@@H](C)C(=O)N[C@@H](CCC(N)=O)C(N)=O)C(C)C)NC(=O)[C@H](CCC(N)=O)NC(=O)[C@H](Cc2c[nH]cn2)NC(=O)[C@H]([C@@H](C)CC)NC1=O
B5: mt-107 (peptide)
peptide: HSQGTFISDYSKYLDEIHQKEFIAWLMNT-NH2
modifications: lactam 16-20; N-terminus assumed
SMILES: CC[C@H](C)[C@H](NC(=O)[C@H](Cc1ccccc1)NC(=O)[C@H](CCC(=O)O)NC(=O)[C@@H]1CCCCNC(=O)CC[C@H](NC(=O)[C@H](CC(=O)O)NC(=O)[C@H](CC(C)C)NC(=O)[C@H](Cc2ccc(O)cc2)NC(=O)[C@H](CCCCN)NC(=O)[C@H](CO)NC(=O)[C@H](Cc2ccc(O)cc2)NC(=O)[C@H](CC(=O)O)NC(=O)[C@H](CO)NC(=O)[C@@H](NC(=O)[C@H](Cc2ccccc2)NC(=O)[C@@H](NC(=O)CNC(=O)[C@H](CCC(N)=O)NC(=O)[C@H](CO)NC(=O)[C@@H](N)Cc2c[nH]cn2)[C@@H](C)O)[C@@H](C)CC)C(=O)N[C@@H]([C@@H](C)CC)C(=O)N[C@@H](Cc2c[nH]cn2)C(=O)N[C@@H](CCC(N)=O)C(=O)N1)C(=O)N[C@@H](C)C(=O)N[C@@H](Cc1c[nH]c2ccccc12)C(=O)N[C@@H](CC(C)C)C(=O)N[C@@H](CCSC)C(=O)N[C@@H](CC(N)=O)C(=O)N[C@H](C(N)=O)[C@@H](C)O
B6: mt-97 (peptide)
peptide: HAEGTFTSDYSIYMDEIHQKDFVNWLLAQ-NH2
modifications: lactam 16-20; N-terminus assumed
SMILES: CC[C@H](C)[C@H](NC(=O)[C@H](CO)NC(=O)[C@H](Cc1ccc(O)cc1)NC(=O)[C@H](CC(=O)O)NC(=O)[C@H](CO)NC(=O)[C@@H](NC(=O)[C@H](Cc1ccccc1)NC(=O)[C@@H](NC(=O)CNC(=O)[C@H](CCC(=O)O)NC(=O)[C@H](C)NC(=O)[C@@H](N)Cc1c[nH]cn1)[C@@H](C)O)[C@@H](C)O)C(=O)N[C@@H](Cc1ccc(O)cc1)C(=O)N[C@@H](CCSC)C(=O)N[C@@H](CC(=O)O)C(=O)N[C@H]1CCC(=O)NCCCC[C@@H](C(=O)N[C@@H](CC(=O)O)C(=O)N[C@@H](Cc2ccccc2)C(=O)N[C@H](C(=O)N[C@@H](CC(N)=O)C(=O)N[C@@H](Cc2c[nH]c3ccccc23)C(=O)N[C@@H](CC(C)C)C(=O)N[C@@H](CC(C)C)C(=O)N[C@@H](C)C(=O)N[C@@H](CCC(N)=O)C(N)=O)C(C)C)NC(=O)[C@H](CCC(N)=O)NC(=O)[C@H](Cc2c[nH]cn2)NC(=O)[C@H]([C@@H](C)CC)NC1=O
B7: mt-108 (peptide)
peptide: HSQGTFISDYSKALDEIHQKEFIAWLMNT-NH2
modifications: lactam 16-20; N-terminus assumed
SMILES: CC[C@H](C)[C@H](NC(=O)[C@H](Cc1ccccc1)NC(=O)[C@H](CCC(=O)O)NC(=O)[C@@H]1CCCCNC(=O)CC[C@H](NC(=O)[C@H](CC(=O)O)NC(=O)[C@H](CC(C)C)NC(=O)[C@H](C)NC(=O)[C@H](CCCCN)NC(=O)[C@H](CO)NC(=O)[C@H](Cc2ccc(O)cc2)NC(=O)[C@H](CC(=O)O)NC(=O)[C@H](CO)NC(=O)[C@@H](NC(=O)[C@H](Cc2ccccc2)NC(=O)[C@@H](NC(=O)CNC(=O)[C@H](CCC(N)=O)NC(=O)[C@H](CO)NC(=O)[C@@H](N)Cc2c[nH]cn2)[C@@H](C)O)[C@@H](C)CC)C(=O)N[C@@H]([C@@H](C)CC)C(=O)N[C@@H](Cc2c[nH]cn2)C(=O)N[C@@H](CCC(N)=O)C(=O)N1)C(=O)N[C@@H](C)C(=O)N[C@@H](Cc1c[nH]c2ccccc12)C(=O)N[C@@H](CC(C)C)C(=O)N[C@@H](CCSC)C(=O)N[C@@H](CC(N)=O)C(=O)N[C@H](C(N)=O)[C@@H](C)O
B8: mt-98 (peptide)
peptide: YAEGTFTSDYSIYMDEIHQKDFVNWLLAQ-NH2
modifications: lactam 16-20; N-terminus assumed
SMILES: CC[C@H](C)[C@H](NC(=O)[C@H](CO)NC(=O)[C@H](Cc1ccc(O)cc1)NC(=O)[C@H](CC(=O)O)NC(=O)[C@H](CO)NC(=O)[C@@H](NC(=O)[C@H](Cc1ccccc1)NC(=O)[C@@H](NC(=O)CNC(=O)[C@H](CCC(=O)O)NC(=O)[C@H](C)NC(=O)[C@@H](N)Cc1ccc(O)cc1)[C@@H](C)O)[C@@H](C)O)C(=O)N[C@@H](Cc1ccc(O)cc1)C(=O)N[C@@H](CCSC)C(=O)N[C@@H](CC(=O)O)C(=O)N[C@H]1CCC(=O)NCCCC[C@@H](C(=O)N[C@@H](CC(=O)O)C(=O)N[C@@H](Cc2ccccc2)C(=O)N[C@H](C(=O)N[C@@H](CC(N)=O)C(=O)N[C@@H](Cc2c[nH]c3ccccc23)C(=O)N[C@@H](CC(C)C)C(=O)N[C@@H](CC(C)C)C(=O)N[C@@H](C)C(=O)N[C@@H](CCC(N)=O)C(N)=O)C(C)C)NC(=O)[C@H](CCC(N)=O)NC(=O)[C@H](Cc2c[nH]cn2)NC(=O)[C@H]([C@@H](C)CC)NC1=O
B9: mt-109 (peptide)
peptide: YSQGTFTSDYSKYLDEIHQKDFVNWLLAQ-NH2

glucagon receptor, sequence (P47871 26-477 limits assumed): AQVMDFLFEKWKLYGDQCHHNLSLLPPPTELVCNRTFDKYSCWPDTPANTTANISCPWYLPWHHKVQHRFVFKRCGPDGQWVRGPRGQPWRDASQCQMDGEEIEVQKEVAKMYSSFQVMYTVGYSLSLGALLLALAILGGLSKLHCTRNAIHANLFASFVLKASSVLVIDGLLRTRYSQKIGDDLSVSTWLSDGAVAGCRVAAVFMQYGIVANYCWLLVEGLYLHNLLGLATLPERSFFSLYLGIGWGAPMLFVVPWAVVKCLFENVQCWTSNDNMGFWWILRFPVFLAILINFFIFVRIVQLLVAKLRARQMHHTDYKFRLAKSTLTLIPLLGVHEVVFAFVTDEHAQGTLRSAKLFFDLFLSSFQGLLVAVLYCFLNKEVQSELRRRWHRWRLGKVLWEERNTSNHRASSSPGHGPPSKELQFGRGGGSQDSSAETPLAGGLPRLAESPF

The target of the first assay is T1, GIP receptor. The assay can be described thus: cell-based or functional assay.
Turning to B1, the concentration giving a half-maximal response (EC50) stood at 0.478 nM and the relative activity is 9.62%.
For the molecule B2, the “EC50” value was 0.016 nM and the relative activity was found to be 306%.
As to B3, the “EC50” value came out at 0.049 nM and the relative activity came to 100%.
As to B4, the response was half-maximal at 0.058 nM (EC50) and the relative activity was found to be 84.5%.
For B5, the “EC50” value came out at 3.37 nM and the relative activity came to 0.74%.
Turning to B6, a half-maximal effect (EC50) was put at 1.75 nM and the relative activity worked out at 2.81%.
Consider B7, for which the concentration for a half-maximal effect (EC50) was found to be 4.78 nM and the relative activity amounted to 0.52%.
The corresponding values for B8 are 0.196 nM and 25%.
For B9, the “EC50” value was found to be 0.658 nM and the relative activity is 6.99%.

A further assay has as its target GLP-1 receptor (UniProt P43220 24-463, limits assumed). Put plainly: cell-based or functional assay.
Take B1: the “EC50” value is 2.02 nM and the relative activity came out at 1.49%.
As to B2, a half-maximal effect (EC50) was put at 552 nM and the relative activity amounted to 0.01%.
Turning to B3, the “EC50” value was determined as 4550 nM and the relative activity is 0%.
As for B4, the “EC50” value worked out at 92.9 nM and the relative activity is 0.04%.
Turning to B5, it took 24.8 nM to reach a half-maximal effect (EC50) and the relative activity worked out at 0.16%.
As to B6, the “EC50” value was determined as 2.36 nM and the relative activity was found to be 1.27%.
On to B7, for which it took 0.32 nM to reach a half-maximal effect (EC50) and the relative activity is 12.5%.
For the molecule B8, the “EC50” value was determined as 2.82 nM and the relative activity is 1.42%.
As to B9, the half-maximal effective concentration (EC50) came out at 3.86 nM and the relative activity was found to be 0.78%.

A further assay has as its target glucagon receptor (UniProt P47871 26-477, limits assumed). Put plainly: cell-based or functional assay.
For B1, the midpoint of the response, the EC50, lay at 0.43 nM and the relative activity came to 23.3%.
Consider B2, for which the “EC50” value turned out to be 1460 nM and the relative activity worked out at 0.01%.
Consider B3, for which the “EC50” value came out at 23300 nM and the relative activity turned out to be 0%.
Consider B4, for which the “EC50” value is 61.7 nM and the relative activity is 0.29%.
The corresponding values for B5 are 0.07 nM and 186%.
For B6, the response was half-maximal at 4.08 nM (EC50) and the relative activity was 3.19%.
The corresponding values for B7 are 0.19 nM and 68.4%.
For B8, a half-maximal effect (EC50) was put at 957 nM and the relative activity came out at 0.01%.
Turning to B9, the “EC50” value worked out at 0.13 nM and the relative activity stood at 76.9%.
